Data from patent US20230287362A1 (REGENTS OF THE UNIVERSITY OF COLORADO A BODY CORPORATE, published 2023).
Ends that are not written are not given here.

Assays:
[1] = target: T1, E. cloacae Cap2 C109A/C548A (catalytically dead) (Enterobacter cloacae UCI 50, UniProt P0DX82 1-600); assay: co-purified stoichiometric complex, cryo-EM
T1 construct: also called C.D. Cap2; Cap2(C548A/C109A)

[2] = target: T2, E. cloacae Cap2 E1 domain, residues 374-600, C548A (Enterobacter cloacae UCI 50, UniProt P0DX82 374-600); assay: X-ray crystallography of a fusion construct, 1.77 A
T2 construct: also called Cap2 E1 (of Cp2 E1-CD-NTase Apo, PDB 7TSX)

[3] = target: T3, E. cloacae Cap2 E1 domain, residues 363-600, C548A (Enterobacter cloacae UCI 50, UniProt P0DX82 363-600); assay: X-ray crystallography of a fusion construct, 2.11 A
T3 construct: also called Cap2 E1 (of Cap2 E1-CD-NTase: AMP, PDB 7TSQ)

| Binder | binding result [1] | binding result [2] | binding result [3] |
| --- | --- | --- | --- |
| E. cloacae CD-NTase with an N-terminal His6-tag (enzyme, C terminus conjugated to AMP in the cryo-EM structure, also called His6-CD-NTase; ec cdnD02; not shown: N-terminal His6-TEV cleavage site tag of vector 2-BT) MELQPQFNEFLANIRPTDTQKEDWKSGARTLRERLKNFEPLKEIVVSTFLQGSIRRSTAIRPLGDKRPDVDIVVVTNLDHTRMSPTDAMDLFIPFLEKYYPGKWETQGRSFGITLSYVELDLVITAIPESGAEKSHLEQLYKSESVLTVNSLEEQTDWRLNKSWTPNTGWLSESNSAQVEDAPASEWKAHPLVLPDREKNEWGRTHPLAQIRWTAEKNRLCNGHYINLVRAVKWWRQQNSEDLPKYPKGYPLEHLIGNALDNGTTSMAQGLVQLMDTFLSRWAAIYNQKSKPWLSDHGVAEHDVMARLTAEDFCSFYEGIASAAEIARNALASEEPQESAQLWRQLFGSKFPLPGPQGGDRNGGFTTPSKPAEPQKTGRFA | binds | – | – |
| KPAEPQKTGRFA (also: C terminus conjugated to AMP in ATP-bound structure, unmodified in apo structure) [E. cloacae CD-NTase C terminus, residues 370-381] | – | binds | binds |
